Data taken from the supplement of paper PMC9732359.
± gives the uncertainty stated by the source.

Experiment: protein stability index of a GFP-peptide fusion (yeast GPS) (PSI 1-4); higher = more stable; sorted into four equal gates, so the index is relative within each strain
How it was run: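 The protein stability index combines read frequencies across sorting gates, each weighted by its gate number and then summed. To obtain those frequencies, a pooled yeast library of GFP fusions to tiled 17-residue yeast protein peptides, on a plasmid also expressing Cherry, was grown to mid-log phase in leucine-free medium. The cells were sorted into four equal gates by GFP/Cherry ratio before plasmid amplification by PCR and Illumina sequencing.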

| Sequence | protein stability index (doa10∆) | protein stability index (pdr5∆) | protein stability index (san1∆) | protein stability index (ubr1∆) |
| --- | --- | --- | --- | --- |
| NNMNVNMNLNPQMFLNQ [GAL11] | 2.14 ± 0.043 | 2.56 ± 0.046 | 2.46 ± 0.048 | 2.48 ± 0.035 |
| KLLNDLALENGEITKTE [NUT1] | 3.13 ± 0.15 | 3.09 ± 0.22 | 2.78 ± 0.2 | 3.18 ± 0.086 |
| AFNQVEIRPEMLGHYLG [RPS15] | 2.92 ± 0.12 | 3.09 ± 0.19 | 3.44 ± 0.12 | 3.19 ± 0.15 |
| CAFLLTKIKDAEEDSLL [YJL039C/NUP192] | 3.22 ± 0.11 | 3.4 ± 0.071 | 3.08 ± 0.11 | 3.35 ± 0.1 |
| PPTTSNLIIFLYKFNGW [YML103C/NUP188] | 1.76 ± 0.046 | 2.26 ± 0.045 | 2.32 ± 0.058 | 2.53 ± 0.051 |
| GLFGNKPALGSLGSSST [YGR119C/NUP57] | 3.34 ± 0.089 | 2.63 ± 0.084 | 2.77 ± 0.048 | 3.21 ± 0.18 |
| FNTNFDDEFGDLDAVFF [SNF6] | 3 ± 0.076 | 2.96 ± 0.059 | 2.77 ± 0.054 | 3.01 ± 0.035 |
| PEDPYFNTLVRIMSTRC [DIS3] | 2.38 ± 0.093 | 2.72 ± 0.072 | 2.56 ± 0.052 | 1.92 ± 0.049 |
| EQKITEIEDGQDGGVTP [RPO21] | 3.36 ± 0.081 | 3.38 ± 0.067 | 3.37 ± 0.048 | 3.31 ± 0.067 |
| GHVGSVQISNIPDIGDL [PRP8] | 3.11 ± 0.067 | 2.95 ± 0.053 | 2.79 ± 0.058 | 3.03 ± 0.046 |
| LKKIASIPNLFPTDLEI [SWI1] | 2.59 ± 0.051 | 2.69 ± 0.044 | 2.55 ± 0.053 | 2.64 ± 0.036 |
| PTGPKTAIDKNGNITYS [FAS2] | 2.9 ± 0.061 | 3.08 ± 0.057 | 3 ± 0.059 | 2.91 ± 0.057 |
| ETKTKKEKIKGLQDEIM [SMC4] | 3.12 ± 0.11 | 3.32 ± 0.13 | 3.13 ± 0.06 | 3.38 ± 0.068 |
| EPEEEKSKREEEAKSVL [ARP9] | 3.15 ± 0.27 | 3.53 ± 0.29 | – | 3.25 ± 0.17 |
| VNIEPFNIDDEIKHGVF [LIN1] | 3.48 ± 0.15 | 3 ± 0.21 | 3.45 ± 0.14 | 3.48 ± 0.077 |
| RKHKRVSPNAAPRQEIS [YAR002W/NUP60] | 2.92 ± 0.08 | 2.89 ± 0.056 | 2.92 ± 0.046 | 2.71 ± 0.063 |
| IRNINVQDALLTNQLYK [SNF2] | 2.84 ± 0.07 | 2.67 ± 0.064 | 3.12 ± 0.05 | 3.24 ± 0.075 |
| KMLKIWTMAFRTMDDIK [ECM29] | 2.03 ± 0.11 | 1.76 ± 0.1 | 2.06 ± 0.12 | 1.96 ± 0.075 |
| NPIHVSRHFASYANLPG [FAS1] | 2.23 ± 0.059 | 2.36 ± 0.05 | 1.94 ± 0.081 | 2.11 ± 0.038 |
| SYAGKQVVGPFHTSFSA [SMC4] | 2.7 ± 0.078 | 3.33 ± 0.11 | 3.08 ± 0.056 | 3.13 ± 0.049 |
| VIIRRLKTRDWIVVLPW [POP1] | 1.9 ± 0.072 | 1.46 ± 0.13 | 1.98 ± 0.15 | 1.82 ± 0.057 |
| WYIEKVIRIPMQENDKI [CSI1] | 3.05 ± 0.14 | 2.78 ± 0.1 | – | 3.02 ± 0.14 |
| SVVAKQLLNGQKIVVVR [RPL16A] | 1.25 ± 0.049 | 1.36 ± 0.053 | 1.62 ± 0.11 | 1.24 ± 0.057 |
| GDTVRILDTSQSESRQK [SNU114] | 2.81 ± 0.051 | 2.96 ± 0.054 | 2.77 ± 0.05 | 2.9 ± 0.04 |
| ALTNELNELKAIKDKLE [YIL149C/MLP2] | 1.35 ± 0.061 | 2.01 ± 0.07 | 1.89 ± 0.096 | 1.96 ± 0.058 |
| FDSELIHLKQKLSESLD [SMC3] | – | 2.88 ± 0.17 | 3.22 ± 0.13 | 3.24 ± 0.14 |

| Sequence | protein stability index (doa10∆) | protein stability index (pdr5∆) | protein stability index (san1∆) | protein stability index (ubr1∆) |
| --- | --- | --- | --- | --- |
| EDEDDDDDDDEDEEEEE [QCR6] | 3.06 ± 0.049 | 3.5 ± 0.12 | 3.4 ± 0.041 | 3.84 ± 0.17 |
| KGNVGFVFTNEPLTEIK [RPP0] | 3.56 ± 0.18 | 3.06 ± 0.1 | 2.06 ± 0.21 | 3.58 ± 0.2 |
| LDGVSYLHQNWVLHRDL [SSN3] | 2.34 ± 0.11 | 2.11 ± 0.081 | 2.77 ± 0.19 | 2.24 ± 0.087 |
| KTTPNTASSEASAGSKE [YMR153W/NUP53] | 2.98 ± 0.052 | 3.34 ± 0.061 | 3.16 ± 0.046 | 3.12 ± 0.038 |
| YYKNFHNSVKRYQIMLP [SNM1] | 1.12 ± 0.042 | 1.36 ± 0.059 | 1.33 ± 0.11 | 1.47 ± 0.05 |
| LERVKANAAKRAEAKAQ [RPL21A] | 3.14 ± 0.097 | 3.25 ± 0.12 | 3.36 ± 0.061 | 3.14 ± 0.11 |
| FGAKSDEKKDSDSSKPA [YJL041W/NSP1] | 3.04 ± 0.074 | 3.21 ± 0.099 | 3.24 ± 0.07 | 3.04 ± 0.086 |
| LCQKSPVMADLNGGLQF [FAS2] | 2.79 ± 0.11 | 2.65 ± 0.17 | 2.94 ± 0.14 | 2.53 ± 0.2 |
| FNFVLLGQIGACHVEVP [COB] | 1.43 ± 0.085 | 1.88 ± 0.071 | 1.2 ± 0.17 | 1.6 ± 0.089 |
| MGVRTFSQKEMAFNLLG [FAS2] | 2.1 ± 0.078 | 1.9 ± 0.057 | 2.15 ± 0.083 | 2.21 ± 0.046 |
| GKEFEARNLIEDEDDGE [RPC53] | 3.46 ± 0.16 | 3.58 ± 0.14 | 3.41 ± 0.1 | 2.94 ± 0.14 |
| YQKNKPYPKSRYNRAVP [RPL10] | 2.91 ± 0.045 | 3.06 ± 0.045 | 3.06 ± 0.04 | 2.85 ± 0.038 |
| RYSMSEQFPFYLHDNAS [IRR1] | 3.02 ± 0.09 | 3.01 ± 0.06 | 2.97 ± 0.063 | 3.03 ± 0.042 |
| TVPRIVQLLSKSHNAHV [RPN2] | 1.91 ± 0.056 | 1.69 ± 0.044 | 2.08 ± 0.067 | 1.98 ± 0.048 |
| GFERLTVNEPQMSDKHA [SRB7] | 3.06 ± 0.12 | 3.36 ± 0.082 | 3.25 ± 0.14 | 3.16 ± 0.051 |
| FLKEKDTVAELQAQLDY [FAS2] | 2.88 ± 0.091 | 3.07 ± 0.11 | 3.15 ± 0.051 | 3.02 ± 0.067 |
| VRKELRGRAVVLMGKNT [RPP0] | 1.71 ± 0.067 | 1.83 ± 0.094 | 2.12 ± 0.15 | 2.08 ± 0.057 |
| LDSTGFDSTAFNATVDE [MED2] | 3.08 ± 0.048 | 3.27 ± 0.053 | 3.06 ± 0.053 | 3.07 ± 0.038 |
| WVYKTKGDGMTSAVASI [RPN1] | 2.75 ± 0.27 | 3.14 ± 0.19 | 2.57 ± 0.23 | 2.97 ± 0.14 |
| LNLSLHKLDLAKRNLDA [SMC2] | 2.28 ± 0.046 | 2.78 ± 0.043 | 2.62 ± 0.047 | 2.17 ± 0.029 |
| TPSFSFGKTTANLPANS [YLR335W/NUP2] | 2.84 ± 0.069 | 2.96 ± 0.1 | 3.01 ± 0.13 | 3.19 ± 0.054 |
| SPTINRANVYVGFLVQL [PRP8] | 2.6 ± 0.065 | 1.89 ± 0.066 | 1.98 ± 0.1 | 2.1 ± 0.063 |
| ADNSGARNLYIIAVKGS [RPL23A] | 1.55 ± 0.049 | 1.63 ± 0.055 | 1.33 ± 0.11 | 1.53 ± 0.057 |
| PLVLLQQIPLLCYMAPM [POP3] | 1.72 ± 0.053 | 1.59 ± 0.061 | 1.85 ± 0.074 | 1.92 ± 0.054 |
| IPNQEVLQYSDWESDLH [YDL116W/NUP84] | 2.1 ± 0.056 | 2 ± 0.056 | 2.43 ± 0.043 | 2.18 ± 0.057 |
| APPQRPRFNRDNKVSPA [RPS26B] | 2.79 ± 0.1 | 2.45 ± 0.11 | 3.09 ± 0.14 | – |
